Measurements published in a protein production outcome set (Wang et al. 2014).

Assay: label from the status in PepcDB records

Sequence: MNLDLGSTVRGYESDKDTFPQSKGVSSSQKEQHSQLNQTKIAYEQRLLNDLEDMDDPLDLFLDYMIWISTSYIEVDSESGQEVLRSTMERCLIYIQDMETYRNDPRFLKIWIWYINLFLSNNFHESENTFKYMFNKGIGTKLSLFYEEFSKLLENAQFFLEAKVLLELGAENNCRPYNRLLRSLSNYEDRLREMNIVENQNSVPDSRERLKGRLIYRTAPFFIRKFLTSSLMTDDKENRANLNSNVGVGKSAPNVYQDSIVVADFKSETERLNLNSSKQPSNQRLKNGNKKTSIYADQKQSNNPVYKLINTPGRKPERIVFNFNLIYPENDEEFNTEEILAMIKGLYKVQRRGKKHTEDYTSDKNRKKRKLDVLVERRQDLPSSQPPVVPKSTRIEVFKDDDNPSQSTHHKNTQVQVQTTTSILPLKPVVDGNLAHETPVKPSLTSNASRSPTVTAFSKDAINEVFSMFNQHYSTPGALLDGDDTTTSKFNVFENFTQEFTAKNIEDLTEVKDPKQETVSQQTTSTNETNDRYERLSNSSTRPEKADYMTPIKETTETDVVPIIQTPKEQIRTEDKKSGDNTETQTQLTSTTIQSSPFLTQPEPQAEKLLQTAEHSEKSKEHYPTIIPPFTKIKNQPPVIIENPLSNNLRAKFLSEISPPLFQYNTFYNYNQELKMSSLLKKIHRVSRNENKNPIVDFKKTGDLYCIRGELGEGGYATVYLAESSQGHLRALKVEKPASVWEYYIMSQVEFRLRKSTILKSIINASALHLFLDESYLVLNYASQGTVLDLINLQREKAIDGNGIMDEYLCMFITVELMKVLEKIHEVGIIHGDLKPDNCMIRLEKPGEPLGAHYMRNGEDGWENKGIYLIDFGRSFDMTLLPPGTKFKSNWKADQQDCWEMRAGKPWSYEADYYGLAGVIHSMLFGKFIETIQLQNGRCKLKNPFKRYWKKEIWGVIFDLLLNSGQASNQALPMTEKIVEIRNLIESHLEQHAENHLRNVILSIEEELSHFQYKGKPSRRF
- protein production: failed

Sequence: MVKQGVFMKTDQSKVKKLSDYKSLDYFVIHVDLQIDLSKKPVESKARLTVVPNLNVDSHSNDLVLDGENMTLVSLQMNDNLLKENEYELTKDSLIIKNIPQNTPFTIEMTSLLGENTDLFGLYETEGVALVKAESEGLRRVFYLPDRPDNLATYKTTIIANQEDYPVLLSNGVLIEKKELPLGLHSVTWLDDVPKPSYLFALVAGNLQRSVTYYQTKSGRELPIEFYVPPSATSKCDFAKEVLKEAMAWDERTFNLECALRQHMVAGVDKYASGASEPTGLNLFNTENLFASPETKTDLGILRVLEVVAHEFFHYWSGDRVTIRDWFNLPLKEGLTTFRAAMFREELFGTDLIRLLDGKNLDERAPRQSAYTAVRSLYTAAAYEKSADIFRMMMLFIGKEPFIEAVAKFFKDNDGGAVTLEDFIESISNSSGKDLRSFLSWFTESGIPELIVTDELNPDTKQYFLKIKTVNGRNRPIPILMGLLDSSGAEIVADKLLIVDQEEIEFQFENIQTRPIPSLLRSFSAPVHMKYEYSYQDLLLLMQFDTNLYNRCEAAKQLISALINDFCIGKKIELSPQFFAVYKALLSDNSLNEWMLAELITLPSLEELIENQDKPDFEKLNEGRQLIQNALANELKTDFYNLLFRIQISGDDDKQKLKGFDLKQAGLRRLKSVCFSYLLNVDFEKTKEKLILQFEDALGKNMTETALALSMLCEINCEEADVALEDYYHYWKNDPGAVNNWFSIQALAHSPDVIERVKKLMRHGDFDLSNPNKVYALLGSFIKNPFGFHSVTGEGYQLVADAIFDLDKINPTLAANLTEKFTYWDKYDVNRQAMMISTLKIIYSNATSSDVRTMAKKGLDKVKEDLPLPIHLTFHGGSTMQDRTAQLIADGNKENAYQLH
- protein production: failed

Sequence: MYIQPLNPTGNVGLTILASLTPIIALLILLAGLRITAWLATLIGSIITILVATFVWGTPIIQVSYAWLIGALVGTWAISWIVFWGLTIYNTLVLTGKFDAFRDWIVRNSTNDARVQAIVLAWSLGALFEGLVGFGYPWAFIAPLLIYLGFDDLKALQVSALANNAPVSFGALGTPIIILASVTGLPLLFISSSVAKVVAILALLPPWILLYLVDKWRGIREAWPIAILGSLSYILGQYPVASFIGPYLPDITGSLISFVILLLFLRVWRPKRVLSLRSVQPNGGESKKYSTKDVIEALSAFIVLIIVVTLWTGPWSPLTKFSLVTLSQTAYSSLLHKNVGVSFAFNPFVAGTSILVSWIIISLVLRASPRIMGEAIKRSFHQYWGGILTGIFVVGLAYVFNFSGMAYSLAWKTSDLGIAFIIVSPLFGWIGCALSGSNTSTNALFGAFQVTTARLTGLPVGLPPALNSVGAELAKPVAPQTASAGVSTTKYVRKEGIVIRKNLPWAIGILIYLILIGVLYAFLAPSLFVH
- protein production: failed

Sequence: MEQMIFIRKDDKVEVFSEEEELKGSYYRAILEDNPTKSGHNKLKVRYLTQLNEHRLAPLTEFVDQRFIRPVPSEDVNDGVVFVEGLMVDAYLKDGWWTGVVVKTMEDEKFLVYFDCPPDIIQFEKKKLRVHLDWTGFKWIRPDNKELVKSVFSCGTMVELRFDCAWIPVIVIKELEKDKRFLVKYWNKSYSCRESKNLIVDSLRLRPMQPPLSVGKYELLDHVEAFSGFEWRQGVVRGIVFEGRYMVSFGATKEASQFNHSDIRPPMEWEDGVWHKRTKPKRQKETSLDGNRNVQTKEPPGNEMADDVKKESGLPITLGVTATKNKTQGKVSPVPMKNGFGNESTREKMPEEPKIKYYTRKRKRGGLKLNSYINKTVLSSDRTPNVVKNSASNAEENHAKHTIMVLPFAKKSPVWKTYESLEVFKSVSHSLHFSPLFETKQDFREGYAIGMMVTYFGLLEKFKDLEADVPVSQLNSLKDSFSELEKHGFNVTTPLSRIDKLLALKDRQLYIMEELKGFDKEMTNEFSKAKQEFDDMEQKILEVKHKIIELQRQEAALKEQKEAEKEQKDAAWKKICQMESCAKDLNVELEDVEFEFETILSAPW
- protein production: failed

Sequence: MSLGNIFVTGRIAFSLKYEQQTQSLVVHVKECHQLAYADEAKKRSNPYVKTYLLPDKSRQGKRKTSIKRDTVNPLYDETLRYEIPESLLAQRTLQFSVWHHGRFGRNTFLGEAEIQMDSWKLDKKLDHCLPLHGKISAESEGHHHHHH
- protein production: not failed

Sequence: MLEIPEDRCERHRLFKAIDDAFKAGDFDGLGKALGGSPGWFDERMPFELGLGHPLEYAIYWSPVGFISTLLDAGSDPNYQDHGGFPAIIAALSTDRADRLEVVRVLIEAGADPNMRGVNDWTPLHYSVGIRSAEAIHLLLAAGADPTLATRIDDYTTAFEEADKAGFEAGASLLRDAIARRGFNR
- protein production: failed

Sequence: MRKKKDGQNLPDFRKNPPKLDKKAYEKELKRLQAELVDLQQWVVETGARVVIVMEGRDAAGKGSAIKRITQYLNPRSARIEALPTPNSREKGQWYFQRYIEKLPTAGEIVIFDRSWYNRAGVERVMGFCTSQEYRRFLHQAPIFERLLVEDGIHLRKYWFSVSDEEQIERFEDRLSDPLRRWKLSPMDLQSITRWEDYSRAKDEMFIHTDIPSAPWYTVESEDKKRSRINVISHLLSTIPYEKIDRPLPEIPHRPDSESDYVRPPRDEFRYVPDVAAHLEEERIKKEEKAKKAKKPAKAAGKNSDKQKSSGGKGKKKSKK
- protein production: failed

Sequence: MKEDIVSGTVKRVERHGIIVEVVAGKLDALIPRDQMIPRENFRSGDRIRALFLRVEEIGNTGRKQVILSRTSGLEHHHHHH
- protein production: not failed

Sequence: SEITVSEFLLDFLNKYSENISLATYNNYVSICKNYINPSIGKYKIQDLHPVHIQNYIDKLSYKLNPQSIKIHINILKLAIKRAYRLKLIKENVMDSIKAP
- protein production: failed

Sequence: MPLTMLSEGKGCRIKEVRAGLELKRRLTEMGFTPSSSVRLIGCERGNLLVNVNGARYALGKGMAMKIMVEPDPCEGVELGLEHHHHHH
- protein production: failed

Sequence: MNYFLMIILGVLGAESRFAIELTIDNSAYPYGTLIINMIGCFLLGFMYYFFVEAKKTINQLVAVVSTGFVGSFTTFSTFELEIFKMFQLDQYLKAISYFFVTMLSGLLFVFLGYCLSKLIIIKRKENK
- protein production: failed

Sequence: MNKKRTVDLIHGPILPSLLSFTFPILLSNIFQQLYNTADVLIVGRFLGQESLAAVGATTAIFDLIVGFTLGVGNGMGIVIARYYGARNFTKIKEAVAATWILGALLSILVMLLGFLGLYPLLQYLDTPAEILPQSYQYISMIVTCVGVSFAYNLFAGLLRSIGDSLAALGFLIFSALVNVVLDLYFITQLHLGVQSAGLATIISQGLSAVLCFYYIRKSVPELLPQFKHFKWDKSLYADLLEQGLAMGLMSSIVSIGSVILQFSVNTFGAVIISAQTAARRIMTFALLPMTAISASMTTFASQNLGAKRPDRIVQGLRIGSRLSISWAVFVCIFLFFASPALVSFLASSTDGYLIENGSLYLQISSTFYPILSLLLIYRNCLQGLGQKILPLVSSFIELIGKIVFVVLIIPWAGYKGVILCEPLIWVAMTVQLYFSLFRHPLIKEGKAILATKVQS
- protein production: failed
